# In publication PMC11315836:
# Molecular target: Recombinant hG-CSFR (granulocyte colony stimulating factor receptor) (human) (UniProt Q99062)
# Assay: SPR
# UniProt Q99062, sequence (Q99062 25-836): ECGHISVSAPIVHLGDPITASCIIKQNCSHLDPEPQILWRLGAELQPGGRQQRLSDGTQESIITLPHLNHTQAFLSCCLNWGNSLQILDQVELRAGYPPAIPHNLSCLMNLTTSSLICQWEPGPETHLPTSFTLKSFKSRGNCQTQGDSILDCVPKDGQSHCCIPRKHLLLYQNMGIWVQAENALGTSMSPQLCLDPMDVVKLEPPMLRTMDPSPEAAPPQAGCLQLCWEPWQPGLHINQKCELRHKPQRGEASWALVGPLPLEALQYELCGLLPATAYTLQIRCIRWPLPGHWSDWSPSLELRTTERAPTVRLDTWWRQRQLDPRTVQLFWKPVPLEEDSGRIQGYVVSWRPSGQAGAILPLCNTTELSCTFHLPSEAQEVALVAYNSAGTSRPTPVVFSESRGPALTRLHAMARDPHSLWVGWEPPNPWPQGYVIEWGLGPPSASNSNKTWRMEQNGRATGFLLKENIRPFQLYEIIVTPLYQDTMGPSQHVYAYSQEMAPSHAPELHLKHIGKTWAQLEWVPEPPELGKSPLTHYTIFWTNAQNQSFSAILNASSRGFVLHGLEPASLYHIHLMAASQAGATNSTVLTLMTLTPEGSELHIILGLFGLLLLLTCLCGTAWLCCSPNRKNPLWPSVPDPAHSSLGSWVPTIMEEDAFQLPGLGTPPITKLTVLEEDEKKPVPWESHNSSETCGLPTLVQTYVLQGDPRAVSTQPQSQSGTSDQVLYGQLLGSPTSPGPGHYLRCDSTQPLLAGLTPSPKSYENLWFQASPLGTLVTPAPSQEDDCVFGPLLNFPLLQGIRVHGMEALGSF
substance,measurement,value
"pegfilgrastim (Neulasta), reference product (from UniProt P09919-2 31-204) (ligand)",Kd,0.097 nM
